These results are taken from the RNAGym collection of RNA variant scans (doi:10.7554/elife.90254).

To fix the notation:
B1: LINE1-full (parent)
chain: UACGUAGGUGGUUUUCCCCUGAUAGUGCUAAGGGGGCCUGGAAGUUUGGACUGGGCAGAGCUCAACACAGCGUGGCAAAGUGGCUGUGGCUAGACUGCCUCUCUGGAUUCCUCGUCACUCAGCAGGGCAUCUCUGAGAGAAAUGCC

In the data set the parent is B1. Briefly: self-cleavage, relative activity (ratio to wild type); higher = more cleavage; in vitro, sequencing; the parent is a self-cleaving ribozyme.
For the variant U47C U119C, the self-cleavage came out at 1.48.

For G48A G72A, the self-cleavage was found to be 0.96.

As for U47A C113U, the self-cleavage stood at 1.17. Next, U47A U132A: 1.34; G49A U100C: 1.96. Next, U47G A65G: 0.1; G48A U87C: 0.12; G48A U112C: 1.45. Next, G48A U112A: 0.83; U47C C61U: 0.05. As for A50G A142G, the self-cleavage was 0.9.

Turning to A50G A142C, the self-cleavage was determined as 1.07. Next, U47G U100A: 0.42; G48A U62A: 0.02. To A50C U87C belongs 0.13.

As for U47C A50U, the self-cleavage turned out to be 1.5. To U46C U81A belongs 2.18; to U46C U81G, 0.54. To G49A A138G belongs 1.11. To A50G belongs 0.9; to A50C, 1.34; to U47G C68U, 0.06.

With U46C U62C, the self-cleavage was determined as 0.02. To A50C A142G belongs 1.78; to A50G C63A, 0.02. With U47G C111U, the self-cleavage worked out at 1.62. Take A50G C113A: the self-cleavage is 0.35. To U46C U100A belongs 1.22. Next, U47C U91A: 0.97; U46G A79G: 1.23; G49A G54A: 0.18. Turning to A50G A69C, the self-cleavage was 0. Next, U47A A129G: 1.43. Next, U47G U104C: 1.48.

Regarding G49U U81C, the self-cleavage turned out to be 1.54. Consider G48A U102A, for which the self-cleavage came to 1.71. Next, G48U: 0.94; G48C: 1.01. Next, G48A: 1.28. To G49U G127A belongs 0.27. On to U47A A107U, for which the self-cleavage came to 1.79.

In the case of U47C G54A, the self-cleavage turned out to be 0.59. For the variant U47C G54U, the self-cleavage came to 1.48. To U47A C111A belongs 1.18. Regarding U47C U102C, the self-cleavage turned out to be 1.9.

In the case of U47C A67U, the self-cleavage was found to be 0.2. Next, U47C A67G: 0.88; U47C A142C: 1.3. Next, U47C A140G: 1.52; G49C U115C: 2.02. Next, A50G C145A: 1.05; G49A A142G: 0.98. U46G U112C: the self-cleavage was found to be 1.48. To U46G U112G belongs 0. Next, U47C U96A: 0.1; U47A A50G: 1.2; U47A U85C: 0.12.

Turning to U47A A69U, the self-cleavage was 0.04. Next, U47A A140U: 1.25. To U47G A138G belongs 0.98.

For A50C A94G, the self-cleavage is 0.

Consider A50C A117U, for which the self-cleavage is 0.92. For the variant U46G A107G, the self-cleavage is 1.15.

Regarding G48A G55U, the self-cleavage was 0.19. For U47G U91A, the self-cleavage was 1.93. On to A50G C95U, for which the self-cleavage was 0.03.

For A50G C95A, the self-cleavage is 0.05.

As for A50G G55A, the self-cleavage amounted to 0.15.

Take U47C U143A: the self-cleavage came out at 1.63. On to G48A U73A, for which the self-cleavage was determined as 1.36.

Regarding G49A A67G, the self-cleavage was 0.56. Next, G49A A59G: 0.02; U47C U112A: 1.02. To U47C U112C belongs 2; to A50G A67G, 0.37; to U47A U115A, 1.05. Next, U47A U115C: 1.39. As for U47G A129G, the self-cleavage came out at 1.31. As to G49A U62C, the self-cleavage was 0.03.

With U47C G75A, the self-cleavage came out at 1.95. Next, G49U A94U: 0.32; U46G C103A: 1.25; U47G A92G: 0.17. Turning to A50C A67G, the self-cleavage worked out at 0.62. Next, A50C U109C: 0.97; U46C U52C: 1.26; U47A C146U: 1.68. In the case of A50G C61U, the self-cleavage turned out to be 0.05. To U47A U104C belongs 1.54. Next, U46C U115C: 1.66. Regarding G48U A121G, the self-cleavage was determined as 0.99.

Turning to U47C G125U, the self-cleavage stood at 1.39.

For G49A A117U, the self-cleavage is 1.05. To U47A U143C belongs 1.39; to U47A A94U, 0.18.

Turning to U46G U87C, the self-cleavage was determined as 0. To U47C A138G belongs 1.53; to A50G A121C, 1.23; to U46G A67G, 0.32. To U47G A64G belongs 0.23.

As to U46C U87G, the self-cleavage was 0.55. To G49A U119C belongs 0.62; to U47C U52C, 1.18.

For U46G G53U, the self-cleavage is 1.73. To U47C A78G belongs 1.64.

Consider G48A U91C, for which the self-cleavage was 0.09.

Take A50C U73G: the self-cleavage came out at 0.79.

As for A50G G60A, the self-cleavage is 0.04. Next, U47A U62A: 0.05. Next, U47A U62C: 0.06; G48A A57G: 0.6; G48U U102C: 1.43. Consider G49C A140G, for which the self-cleavage was 1.51. Next, U46G U102C: 1.19.

In the case of U47G U109C, the self-cleavage came to 2.63. As for U47G A59U, the self-cleavage worked out at 1. To A50G C90G belongs 0.06. To A50G A77U belongs 0.73; to A50G A77G, 1.42. Next, G49C U130C: 1.67; U47G A141G: 1.45. Take G49A G72A: the self-cleavage is 1.45. Next, U47A U96C: 0.13; G49A: 1; G49C: 1.15. On to G49U, for which the self-cleavage worked out at 0.94. Next, U46G A65G: 0.05; G49U U109C: 0.95. Next, U47A C63U: 0.33; U46G: 1.25.

Consider U47C U115A, for which the self-cleavage is 1.75. Next, A50C U130C: 1.51; A50G A79U: 1.09; U47C A57G: 1.54. For U47A G86A, the self-cleavage is 0.07.

With A50G C128U, the self-cleavage was 0.36. Next, U47A C123U: 0.7.

Consider U46C U104A, for which the self-cleavage is 1.11. Next, U47A A136U: 1.48; U47C G86U: 0.13. Next, U47C G86A: 0.06; U47G U102A: 1.34; A50G A117G: 1.97.

Consider A50G A117U, for which the self-cleavage worked out at 0.91. To U47C U81G belongs 1.13; to U47C U81A, 2.45; to G48A A59G, 0.03. Next, G48U U119C: 1.95. In the case of U47G A69G, the self-cleavage came to 0.67. To U47A U108C belongs 1.22; to U46G G89A, 0.04; to G49A A69G, 0.36. To U47A A121U belongs 1.04; to U47A A121G, 1.39; to A50C A124G, 1.29. For U47A G127U, the self-cleavage amounted to 1.67. As to U47A U119C, the self-cleavage stood at 1.53. For G49A C133G, the self-cleavage was 1.39.

On to A50G A92G, for which the self-cleavage was 0.19. Next, U47A G72A: 0.95. To A50G C99U belongs 0.43.

As to U47A C76U, the self-cleavage turned out to be 1.83. U47A U91C: the self-cleavage is 0.63. In the case of G48A A64U, the self-cleavage was found to be 0.39. U46C U143G: the self-cleavage was found to be 1.41. Next, U46C U143A: 1.44; U46C U143C: 1.52.
